According to the nanobody polyreactivity screen of Harvey et al. (2022):

Assay: yeast display, Sf9 membrane polyspecificity reagent, FACS + sequencing; frameworks hold sequencing errors
Summary of the method: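 Polyreactivity labels are assigned by the sorting gate from which each nanobody was recovered. The gates were low and high (top ~1%), set on anti-HA fluorescence for expression and streptavidin fluorescence for reagent binding. Before sorting, galactose-induced (36–48 hours) yeast display cells were stained for 1 hour at 4 °C with 10% biotinylated, detergent-solubilized Sf9 membrane reagent.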

QVQLVETGRGLVQAGGSLRLSSAASGFTFGPYDMGWYIQAPGKERELVATIRSGDSTKYADSVKGRFTISRDNAKNTVYLQMNSLKPEDSAGYYCARDARASARRKRDDYWGQGTQVTVSS
polyreactivity (PSR sort gate): low polyreactivity

QVQLVESGGGLVQAGGSLRLSCAASGSTYAIYAMGSYRQAPGKERELVASISGGSTNYADSVKGRFTISRDNAKNTVYLQMNSLKPEDTAVYYCAARGALHHWYRYDYWGQGTQVTVSS
polyreactivity (PSR sort gate): low polyreactivity

QVQLVESGGGLVQAGGSLRLSCAASGLIFKYNAMGWYRQAPGKERELVADINRSGGSTYYADSVKGRFTISRDNAKNTVYLQMNSLKPEDTAVYYCAAERVSLYWVIFGYWGQGTQVTVSS
polyreactivity (PSR sort gate): low polyreactivity

QVQLVESGGGLVQAGGSLRLSCSASGIIFDSYVMGWYRQAPGKERELVAAISFRGGSTYYADSVKGRFTISRDNAKNTVYLQMNSLKPEDTAVYYCAAEGRGYTEYYWGQGTQVTVSS
polyreactivity (PSR sort gate): high polyreactivity

QVQIVESGGGLVQAGGSLRLSCAASRRIFEYYTMGWYRQAPGKERELVARISSGGSTYYADTVKGRFTISRDNAKNSVYLQLNSLLPEDTAVYYCAAGRGYWWWYGYDYWGQGTEVTVSS
polyreactivity (PSR sort gate): low polyreactivity

QVKLVESGGGLVQAGGSLRLTCAASGSNFDINAMGWYRQAPGKERELVAAISWSGGDTYADSVKGRFTISRDNAKITVYLQMNCLKPEDTAVYYCDTGDPHEEQYYYDYCGQGTQVTVSS
polyreactivity (PSR sort gate): low polyreactivity

QVQLVESGGGLVQAGGSLRLSCAASGITLVYYVMGWYRQAPGKERELVAAISSGGITYYADSVKGRFTISRDNAKNTVYLQMNSLKPEDTAVYYCAAESRQYVRTYGYWGQGTQVTVSS
polyreactivity (PSR sort gate): low polyreactivity

QVQLVESGGGLVQAGGSLRLSCAASGSTSRSAMGWYRQAPGKERELVASITRGGSTYYADSVKGRFTISRDNAKNTVYLQMNSLKPEDTAVYYCAARFPQHNYWAMDYWGQGTQVTVSS
polyreactivity (PSR sort gate): high polyreactivity

QVQLVGSGGGLVQAGGSLRLSCAASGRTFWTNAMGWYRQAPGKERELVAAIRNSGGRTYYADSVKGRFTISRDNAKNTVYLQMNSLKPEDTAVYYCNARSSIRPRQGGYEHWGQGTQVTVSS
polyreactivity (PSR sort gate): low polyreactivity

QVQLVESGGGLVQAGGSFRLSCAASGGTFDTYVMGWYRQAPGKERELVAVITRGASTYYADSVKGRFTISRDNAKNTVYLQMNSLKPEDTAVYYCAAAVYSPDYYRFWYSFDYWGQGTQVTVTS
polyreactivity (PSR sort gate): low polyreactivity

QVQLVESGGGLVQAGGSLRLSCAASGIIFVSNAMGWYRQAPGKERELVATINWSDDSTYYADSVKGRFTISRDNAKNTVYLQMNSLKPEDTAVYYCNKELYPVGDYEYWGLGTQVTVSS
polyreactivity (PSR sort gate): low polyreactivity

QVQLEESGGGLVQAGGSLRLSCAASGIIFWYNAMGGSRQAPGKETELVAAISRGGGNTYADSVKGRFTISRDNAKNTVYLQMKSLKEVDTAVYYCAAKRSGYRFNTRWFRLPKYDYWGQGNQVTVSS
polyreactivity (PSR sort gate): low polyreactivity

QVHLVESGGGLVQAGGSLRLSCADSGFTFRRYTMGWYRQAPGKERELVAVISASGGSTYYADSVKGRFTISRDNAKNTVYLQMNSLKPEDTAVYYCNTRAVVIGGDYWGQGTQVTVSS
polyreactivity (PSR sort gate): high polyreactivity

QVQLVESGGGLVQAGGSLRLTCGASGRIFSFYVMGWYRQAPGKERELVAAISLSGGSTYYADSVKGRFTISRDNAKNTVYLQMNSLKPEDTAVYYCAARYASPRYKSKMDYWGQGTQVTVSS
polyreactivity (PSR sort gate): high polyreactivity

QVQLVESGGGLVQAGGSLRLSCAASGRIFSVYAMGWYRQAPGKEREFVAAITKGGVGTYYADSVKGRFTISRDNAKNTVSLQMNCLKPEDTAVYYCAARGTSRQTWLFRYNWNDYWGQGTQVTVSS
polyreactivity (PSR sort gate): high polyreactivity

QVQLVESGGGLVQAGGSLRISCAASGFTFYSNDMGWYRQAPGKERELVAAISYSGGSTYYADSVKGRFTISRDNAKNTVYLQMNSLKPEDTAVYYCAAGGLQQGDYWGQGTQVTVSS
polyreactivity (PSR sort gate): low polyreactivity

QVQLVESGGGLVQAGGSLRLSCAASGFNFPYYAMGWYRQAPGKERELVAAISSSGGSTYYADSVKGRFTISRDNAKNTVYLHMNSLKPEDTAVYYCAADAYSGYSDYYWGQGTQVTVSS
polyreactivity (PSR sort gate): low polyreactivity

QVQLVESGGGLVQAGGSLRLSCAASGFTFFYNAMGWYRPAPGKERELGAVITWNGGTTYYADSVKGRFTISRDNAKNTVYLQMNSLKTEDTAVYYCNADGLILYDYWGQGTQVTVSS
polyreactivity (PSR sort gate): low polyreactivity

QVQLVESGGGLVQAGGSLRLSCAASGSTFLYNAMGWYRQAPGKERELVAAITIGGGSTYYADSVKGRFTISRDNAKNTVYLQMNSLKPEDTAVYYCNKGSYYWWDPGSTYIDDNWGQGTQVTVSS
polyreactivity (PSR sort gate): low polyreactivity

QVQLVESGGGLVQAGGSLRLSCAASGSTFAVNAMGWYRQAPGKERELVAAISDSDGSTFYADSVKGRFTISRDNAKNTVYLQMNSLKPEDTAVYYCAATVYRVFRYSYLYYYWGQGTQVTVSS
polyreactivity (PSR sort gate): low polyreactivity

QVQLVESGGGLVQAGGSLRLSCAASGITFRQYAMGWYRQAPGKEREFVAAISWIGGSTYYADSVKGRFTISRDTAKNTVYLQMNSLKPEDTAVYYCAAETFTDYDYWGQGTQVTVSS
polyreactivity (PSR sort gate): high polyreactivity

QVQLVESGGGLVQAGGSLRLSCAASGSTFQPNAMGWYRQAPGKERELVAAISKSDGRTYYADSVKGRFTISRDNAKNTVYLQMNSLQPEDTAVYNCAADAYWEPKVGFSLFDYWGQGTQVTVSS
polyreactivity (PSR sort gate): low polyreactivity

QVQLVESGGGLVQAGGSLRLSCAASGSIFSYYVMGWYRQAPGKERELVAAISWSGGSTYYADSVKGRFTISRDNSKNTVYLQMNSLKPEDTAVYYCAAGTYPYYWGQGTQVTVSS
polyreactivity (PSR sort gate): low polyreactivity

QVQRVESGGGLVQAGGSLLLSCAASGRTFRPYTMGWYRQAPGTERELVARITSGGSTNYADSVKGSFTISRDNAKNTVYLQMNSLKPEDTAVYYCNKPGDRHRLDEDYWGQGTQVTVSS
polyreactivity (PSR sort gate): low polyreactivity

QVQLVESGGGLVQAGGSLRLSCAASGSTFLDNAMGWYRQAPGKETELVAAITQSGSSTYYADSVKGRFTISRDNAKNTVYLQMNSLKPEDTAVYYCAADVPNISFDYWGQGTQVTVSS
polyreactivity (PSR sort gate): low polyreactivity

QVQLVESGGGLVQAGGSLRLSCAASGSIFNRYAMGWYRQAPGKERELVAAIRSDGSTYYADSVKGRFTISRDNAKNTVYLQMNSLKPEDSAVYYCAAPLHRRYYEMDYWGQGSQVTVSS
polyreactivity (PSR sort gate): low polyreactivity

QVQLVESGGGLVQAGGSLRLSCAASGRTFLIYAMGWYRQAPGKERELVAAITSGGRTKYADSVKGRFTISRDNAKNTVYLQMNSLKPEDTAVYYCAARTGVYRYSRKFYYWGQGTQVTVSS
polyreactivity (PSR sort gate): high polyreactivity

QVQLVESWGGLVQAGGSLRLSCAASGSTIIGYDMGWYRQAPGKVRELVAAISYSDGTYYADSVKGRFTISRDNAKNTFYLPMNSLKPEDTAVYYCAADSLYYRYDYWGQGTQVTVSW
polyreactivity (PSR sort gate): low polyreactivity

QVQLVESGGGLVQAGGSLRLSCAASGLTFVEYAMAWYRQAPGKERELVAAITSTDGTNYADSVKGRFTISRDNAKNTVYIQMNSLKPADTAVYYCFTLAQDFYFWYYYWGQGTQVTVSS
polyreactivity (PSR sort gate): high polyreactivity

QVQLVESGGGLVQAGGSLRLSCAASGRTFDPYAMGWYRQAPGKERELVAAITSSGGSTYYADSVKGRFTISRDNAKNTVYLQMNSLKPEDTAVYYCAAEQRDFIWWFYYWGQGTQVTVSS
polyreactivity (PSR sort gate): high polyreactivity

QVQLVESGGGLVQAGGSLRLSCAASGTFDYYDMGWYRQAPGKERELVAGITSGGSTDYADSVKGRFTISRDNAKNTVYLQMNSLKPEDTAVYYCAADPFRIHTYDYWGQGTQVTVSS
polyreactivity (PSR sort gate): low polyreactivity

QVQLVESGGGLVQAGGSLRLSCAASGSILASYAMGWYRQAPGKERELVAAIRTSGDRTYYADSVKGRFTISRDNAKNTVYLQMNSLKPEDTAVYYCAATYRYRPYSYYQYYSWGQGTQVTVSS
polyreactivity (PSR sort gate): high polyreactivity

QVQLVESGGGLVQAGGSLRLSCAASGFIFRSYAMGWYRQAPGKERELVAAISDGGGSTYYADSVKGRFTISRDNAKKTVYLQMNSLKPEDTAVYYCNAVYHPKGPSGYGYWGQGTQVTVSS
polyreactivity (PSR sort gate): low polyreactivity

QVQLVESCGGLVQAGGSLRLTCAASGSTFNWYTMGWYRQAPGKDRELVAAMSRGTGSTYYADSVKGRFTMSRDNANNRVYVQMNSLKPEDTAVYSCAKQGYRYSSFLYDYWGQGTQVTVSS
polyreactivity (PSR sort gate): low polyreactivity

QVQLVESGGGLVQAGGSLRLTCAASGNTFDYYAMGWYRQAPGKERELVAAITRGGSTNYADSVKGRFTISRDNAKNTVYLQMNSLKPEDTAVYYCAAEQRAPRFADYDYWGQGTQVTVSS
polyreactivity (PSR sort gate): low polyreactivity

QVQLVESGGGLVQAGGSLRLSCAASGLIIVYNAIGWYRHAPGKERELVAGITSGGSTNYADSEKGRFTISRDNAKKTVYLQMNSLKPEDTAVYYCNAPVTGAGTYPPYDSWGQGTQVTVSS
polyreactivity (PSR sort gate): high polyreactivity

QVHLVESGGGLVQAGGSLRLSCAASGRIFSGYAMGWYRQAPGKERELVAAITSGASTNYADSVNGRFTISRDNPKITVYLQLNSLKPVVTAFYYCAATFHSWRGQYLWYDYWGQGTQVTVSS
polyreactivity (PSR sort gate): low polyreactivity

QVQLVESGGGLVQAGGSLRLSCADSGSTFRYYVMGWYRQAPGKERELVARITSAASTNYADSVKGRFTISRDNAKNTVYLQMNSLKPEDTAVYYCAARKYGSRYRLKYDYWGQGTQVTVSS
polyreactivity (PSR sort gate): high polyreactivity

QVQLVESGGGLVQAGGSLRLSCAASGNIFFGYAMGWYRQAPGKEREYVATITKIGGSTYYADSVKGRFTISRDNAKNTVYLQMNSLKPEDTAVYYCAARLGHSVNPGGERWDVEYWGQGTQVTVSS
polyreactivity (PSR sort gate): low polyreactivity

QVQLVESGGGLVQAGGSLRLICAASGRIFLWNAMGWYRQAPGKEREFVATISWNDAISYYADSVKGRFTISRDNAKNSVYLQMNSLKPEDTAVYYCNVDPKIVLSFGYDYWGQGTQVTVSS
polyreactivity (PSR sort gate): low polyreactivity

QVQLVESGGGLVQAGGSLRLSSAASGSTIFLYDMGWYRQAPGKERELVAAITISGGSTYYADSVKGRFTISRDNAKNTVYLQMNSLKPEDTAVYYCAVRTYRFRHWPKYDYWGQGTQVTVSS
polyreactivity (PSR sort gate): high polyreactivity

QVQLVESGGGLVQAGGSLRLSCDASGRIFFWYAMGWYRQAPGKERELVAGITSAGSTNYADSVKGRFTISRDNAKNTVYLQMNSLKPEDTSVYFCNTVDSIPIGSGLYYYWGQGTQVTVSS
polyreactivity (PSR sort gate): low polyreactivity

QVQLVETGGGLVQAGGSLRLSCAASGSIFQGYAMGWYRQAPGKERELVAGITSSGGSTHYADSVKGRFTISRDNAKNTVYLQMNSLKPEDTAVYDYWGQGTQVTVSS
polyreactivity (PSR sort gate): low polyreactivity
